Assays:
[1] = target: T1, human CCR8 (human, UniProt P51685 1-355); experiment: competition with VHH-65 for CCR8 binding
T1 construct: also called hCCR8

[2] = target: T1, human CCR8; experiment: flow cytometry competition with FLAG3-His6 tagged parental VHH-74 on hCCR8 cells
Source text: (§1) Multiple His6 tagged VHH variants were thus generated and evaluated by flow cytometry f for their ability to compete for binding to hCCR8 with their FLAG3-His6 tagged parental counterparts. […] Variants that retained binding capacity where selected for further biophysical and chemical stability analysis.

[3] = target: T1, human CCR8; experiment: flow cytometry competition with FLAG3-His6 tagged parental VHH-56 on hCCR8 cells
Source text: as §1

[4] = target: T1, human CCR8; experiment: flow cytometry, human CCR8 stably expressed in HEK293 cells
[5] = target: T2, N-terminal deletion human CCR8 (delta 18-3XHA) (human, UniProt P51685 20-355); experiment: flow cytometry; an extracellular loop binder is defined in paragraph 224 as binding on hCCR8 cells and on human CCR8 (delta18-3XHA)
T2 construct: N-terminally deleted construct with 3XHA, expressed on transfected HEK293 cells
Source text: VHH clones resulting from the human CCR8 immunization and selection campaign were screened by means of flow cytometry for binding to human CCR8 (SEQ ID NO: 79) on stably transfected HEK293 cells or to HEK293 cells previously transfected with plasmid DNA encoding three different versions of human-mouse chimera CCR8 in which one of the extracellular loops (ECLs) was replaced with the mouse CCR8 counterpart, as well as to an N-terminal deletion human CCR8 (SEQ ID NO: 80, delta 18-3XHA herein after), in comparison to mock-transfected control cells. Comparison of the binding (median fluorescent intensity) signal of a given VHH clone across the seven cell lines enabled classification of said clone as an N-terminal human CCR8 binder (i.e. binding on hCCR8 cells, but not on human CCR8 (delta18-3XHA) or control cells) or as an extracellular loop hCCR8 binder (i.e. binding on hCCR8 cells and on human CCR8 (delta18-3XHA), but not on control cells). Binding comparison across the cell lines expressing human-mouse chimera CCR8 allowed to further classify extracellular hCCR8 binders as either ECL1, ECL2 or ECL3 binders.

[6] = target: T1, human CCR8; experiment: flow cytometry competition with FLAG3-His6 tagged parental VHH-65 on hCCR8 cells
Source text: as §1

T1 sequence (P51685 whole entry): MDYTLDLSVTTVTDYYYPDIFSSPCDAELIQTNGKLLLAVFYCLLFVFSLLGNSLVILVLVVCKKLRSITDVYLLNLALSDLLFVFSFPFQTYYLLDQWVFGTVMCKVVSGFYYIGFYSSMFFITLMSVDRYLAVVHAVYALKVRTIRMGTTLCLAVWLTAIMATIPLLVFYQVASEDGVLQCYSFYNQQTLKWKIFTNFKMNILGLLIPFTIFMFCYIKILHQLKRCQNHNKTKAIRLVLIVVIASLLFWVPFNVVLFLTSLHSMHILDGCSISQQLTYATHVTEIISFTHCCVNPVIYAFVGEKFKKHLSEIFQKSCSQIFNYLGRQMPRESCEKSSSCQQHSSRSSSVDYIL
T2 sequence (P51685 other isoform, or with tags, fused parts or gaps mutant): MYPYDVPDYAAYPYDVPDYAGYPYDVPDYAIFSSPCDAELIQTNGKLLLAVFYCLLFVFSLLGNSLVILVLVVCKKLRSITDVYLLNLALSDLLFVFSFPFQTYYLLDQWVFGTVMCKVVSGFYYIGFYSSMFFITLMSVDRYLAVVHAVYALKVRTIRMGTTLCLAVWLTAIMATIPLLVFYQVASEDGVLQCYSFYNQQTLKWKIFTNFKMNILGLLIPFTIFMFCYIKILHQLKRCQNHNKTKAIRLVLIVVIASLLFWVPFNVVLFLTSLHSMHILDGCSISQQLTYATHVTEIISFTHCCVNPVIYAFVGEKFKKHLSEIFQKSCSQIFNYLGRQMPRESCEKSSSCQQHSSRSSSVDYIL

B1: VHH-74 (VHH)
VHH: EVQLVESGGGLVQPGGSLRLSCAASGSTFSIKSIGWYRQAPGKQRELVADITRGAGINYADSVKGRFTISRDNTKNTMYLQMNSLRPEDTAVYYCNVKTIKRTGGIMTGSKIEYDYWGQGTLVTVSS
notes: Monovalent VHH purified from E. coli periplasm by IMAC; not shown: C-terminal FLAG3 and His6 tags
Question: Does B1 bind [1]?
Answer: Result: binds

B2: VHH-125 (VHH)
VHH: DVQLVESGGGLVQPGGSLRLSCAASGSTFSIKSIGWYRQAPGKQRELVADITRGAGINYADSVKGRFTISRDNAKNTVYLQMNSLRPEDTAVYYCNVKTIKRTGGILTGSKIEYDYWGQGTLVTVSS
notes: also called VHH-74 E1D, T74A, M78V, M107L; not shown: C-terminal His6 tag (no FLAG3)
Question: Does B2 bind [2]?
Answer: Result: binds

B3: VHH-114 (VHH)
VHH: DVQLVESGGGLVQPGGSLRLSCAASRSIYNVLAMGWYRQAPGKERELVAVVWSSGNTNYADSVKGRFTISRDNAKNTVYLQMNSLRPEDTAVYYCYSKSLIGTSRYEIWGQGTLVTVSS
notes: 'V691' is printed, probably V69I; also called VHH-56 E1D, M32L, V691; not shown: C-terminal His6 tag (no FLAG3)
Question: Does B3 bind [3]?
Answer: Result: binds

B4: VHH-115 (VHH)
VHH: DVQLVESGGGLVQPGGSLRLSCAASRSIYNVRAMGWYRQAPGKERELVAVVWSSGNTNYADSVKGRFTISRDNAKNTVYLQMNSLRPEDTAVYYCYSKSLIGTSRYEIWGQGTLVTVSS
notes: 'V691' is printed, probably V69I; also called VHH-56 E1D, M32R, V691; not shown: C-terminal His6 tag (no FLAG3)
Question: Does B4 bind [3]?
Answer: Result: binds

B5: VHH-56 (VHH)
VHH: EVQLVESGGGLVQPGGSLRLSCAASRSIYNVMAMGWYRQAPGKERELVAVVWSSGNTNYADSVKGRFTVSRDNAKNTVYLQMNSLRPEDTAVYYCYSKSLIGTSRYEIWGQGTLVTVSS
notes: Monovalent VHH purified from E. coli periplasm by IMAC; PelB signal peptide is removed on export; not shown: C-terminal FLAG3 and His6 tags
Question: Does B5 bind [4]?
Answer: Result: binds

Question: Does B5 bind [5]?
Answer: Result: binds

B6: VHH-65 (VHH)
VHH: EVQLVESGGGLVQPGGSLRLSCAASGRAFSSYNMGWFRQAPGKERDFVATISSSGTNYANSVKGRFTISRDNAKNTVYLQMNSLRPEDTAVYYCNAKTVTRTGGVITGSRIEYDYWGQGTLVTVSS
notes: as for B1
Question: Does B6 bind [4]?
Answer: Result: binds

Question: Does B6 bind [5]?
Answer: Result: binds

B7: VHH-89 (VHH)
VHH: DVQLVESGGGLVQPGGSLRLSCAASGRAFSSYNMGWFRQAPGKEREFVATISSSGTNYADSVKGRFTISRDNAKNTVYLQMNSLRPEDTAVYYCNAKTVTRTGGVITGSRIEYDYWGQGTLVTVSS
notes: also called VHH-65 E1D, D46E, N60D; not shown: C-terminal His6 tag (no FLAG3)
Question: Does B7 bind [6]?
Answer: Result: binds

From US20240076391A1 (ONCURIOUS, published 2024)
